Experiments:
[1] = target: T1, BCMA-Fc fusion protein (Acrobiosystems, catalogue no. BC7-H5254) (human, UniProt Q02223 1-54); experiment: ELISA, intrinsic affinity
T1 construct: Bought fusion protein; Used as coated antigen in ELISA; also called BCMA抗原; BCMA-Fc抗原; not shown: human Fc
T1 sequence (looked up): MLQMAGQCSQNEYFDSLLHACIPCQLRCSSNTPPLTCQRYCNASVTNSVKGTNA

[2] = target: T2, BCMA on the surface of BCMA-positive cell lines H929 (NCI-H929) and RPMI8226 (human, UniProt Q02223 1-184); experiment: flow cytometry on H929 cells
T2 construct: whole, on cells; Endogenous BCMA of the cell lines; also called 细胞膜表面的BCMA抗原
T2 sequence (looked up): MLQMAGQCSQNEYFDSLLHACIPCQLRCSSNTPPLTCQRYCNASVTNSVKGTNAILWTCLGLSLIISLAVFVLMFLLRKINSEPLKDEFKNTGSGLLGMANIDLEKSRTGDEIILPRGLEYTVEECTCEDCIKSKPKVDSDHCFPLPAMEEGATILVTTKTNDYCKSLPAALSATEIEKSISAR

[3] = target: T2, BCMA on the surface of BCMA-positive …; experiment: flow cytometry on RPMI8226 cells
[4] = target: T2, BCMA on the surface of BCMA-positive …; experiment: flow cytometry on RPMI8226 cells; EC50 relative to J6
[5] = target: T2, BCMA on the surface of BCMA-positive …; experiment: flow cytometry, antibody titration on RPMI8226 cells
[6] = target: T2, BCMA on the surface of BCMA-positive …; experiment: flow cytometry (FACS), apparent affinity on BCMA-bearing cells
[7] = target: T2, BCMA on the surface of BCMA-positive …; experiment: flow cytometry on RPMI8226 cells; EC50 relative to J6; remark: listed apart in the source
[8] = target: T1, BCMA-Fc fusion protein (Acrobiosystems, …); experiment: ELISA on BCMA; EC50 relative to J6
[9] = target: T1, BCMA-Fc fusion protein (Acrobiosystems, …); experiment: ELISA; affinity estimated from the EC50 ratio to J6 (J6 taken as 0.2 nM)

B1: B10 parental antibody as expressed and purified in Example 3 (antibody, V domains shown)
VH: QVQLQQSGAEVKKPGSSVKVSCKASGGTFSSYAISWVRQAPGQGLEWMGGIIPIFGTANYAQKFQGRVTITADESTSTAYMELSSLRSEDTAVYYCARGWYFDLWGRGTLVTVSS
VL: LPVLTQPPSASGTPGQRVTISCSGSSSNIGGYSVNWYQQFPGTAPKLLIYRNNQRPSGVPDRFSGSKSGASASLAISGLQSEDEADYYCAAWDDSLIGYVFGTGTQLTVL
notes: also called 亲本B10; B10亲本抗体
[1]
  Kd: ~10 nM
[2]
  细胞结合百分率 (percent of cells bound): 75.3%
[3]
  细胞结合百分率 (percent of cells bound): 5.54%
[4]
  相对于J6提高倍数 (fold improvement of EC50 over J6): 1.74 fold
[5]
  EC50: 1.57 µg/mL
[6]
  Kd: 0.3 nM
[7]
  fold improvement of EC50 over J6: ~1.5 fold

B2: B10.3 (affinity-matured mutant of B10) (scFv)
scFv: QVQLQQSGAEVKKPGSSVKVSCKASGGTFSKSAIQWVRQAPGQGLEWMGGVIPIFGTANYAQKFQGRVTITADESTSTAYMELSSLRSEDTAVYYCARGWYLDLWGRGTLVTVSSGGSSRSSSSGGGGSGGGGLPVLTQPPSASGTPGQRVTISCSGSSNNIGGYSVNWYQQFPGTAPKLLIYRNNQRPSGVPDRFSGSKSGASASLAISGLQSEDEADYYCAAWDDSVIGWLFGTGTQLTVL
notes: also called 突变体B10.3
[2]
  细胞结合百分率 (percent of cells bound): 98%
[3]
  细胞结合百分率 (percent of cells bound): 54.9%
[4]
  相对于J6提高倍数 (fold improvement of EC50 over J6): 97.1 fold
[5]
  EC50: 0.0282 µg/mL
[8]
  Fold of J6 (EC50 ratio): 1.29 fold
[9]
  Kd: 0.26 nM

B3: B10.4 (affinity-matured mutant of B10) (scFv)
scFv: QVQLQQSGAEVKKPGSSVKVSCKASGGTFSKSAIMWVRQAPGQGLEWMGGVIPIFGTANYAQKFQGRVTITADESTSTAYMELSSLRSEDTAVYYCARGWYLDLWGRGTLVTVSSGGSSRSSSSGGGGSGGGGLPVLTQPPSASGTPGQRVTISCSGSSNNIGGYSVNWYQQFPGTAPKLLIYRNNQRPSGVPDRFSGSKSGASASLAISGLQSEDEADYYCAAWDDSVIGWLFGTGTQLTVL
notes: also called 突变体B10.4
[2]
  细胞结合百分率 (percent of cells bound): 97.9%
[3]
  细胞结合百分率 (percent of cells bound): 57.5%
[4]
  相对于J6提高倍数 (fold improvement of EC50 over J6): 79.9 fold
[5]
  EC50: 0.0343 µg/mL
[8]
  Fold of J6 (EC50 ratio): 1.55 fold
[9]
  Kd: 0.31 nM

B4: B10.5 (affinity-matured mutant of B10) (scFv)
scFv: QVQLQQSGAEVKKPGSSVKVSCKASGGTFSKSAIHWVRQAPGQGLEWMGGVIPIFGTANYAQKFQGRVTITADESTSTAYMELSSLRSEDTAVYYCARGWYLDLWGRGTLVTVSSGGSSRSSSSGGGGSGGGGLPVLTQPPSASGTPGQRVTISCSGSSSNIGGYSVNWYQQFPGTAPKLLIYRNNQRPSGVPDRFSGSKSGASASLAISGLQSEDVADYYCAAWDDSLIGYVFGTGTQLTVL
notes: also called 突变体B10.5
[2]
  细胞结合百分率 (percent of cells bound): 97.2%
[3]
  细胞结合百分率 (percent of cells bound): 58.2%
[4]
  相对于J6提高倍数 (fold improvement of EC50 over J6): 67.5 fold
[5]
  EC50: 0.0406 µg/mL
[8]
  Fold of J6 (EC50 ratio): 1.35 fold
[9]
  Kd: 0.27 nM

B5: B10.9 (affinity-matured mutant of B10) (scFv)
scFv: QVQLQQSGAEVKKPGSSVKVSCKASGGTFSKSAIQWVRQAPGQGLEWMGGVIPIFGTANYAQKFQGRVTITADESTSTAYMELSSLRSEDTAVYYCARGWYLDLWGRGTLVTVSSGGSSRSSSSGGGGSGGGGLPVLTQPPSASGTPGQRVTISCSGSSNNIGGYSVNWYQQFPGTAPKLLIYRNNQRPSGVPDRFSGSKSGASASLAISGLQSEDEADYYCAAWDDSEIGWLFGTGTQLTVL
notes: also called 突变体B10.9
[2]
  细胞结合百分率 (percent of cells bound): 91.6%
[3]
  细胞结合百分率 (percent of cells bound): 42.9%
[4]
  相对于J6提高倍数 (fold improvement of EC50 over J6): 60.7 fold
[5]
  EC50: 0.0451 µg/mL
[8]
  Fold of J6 (EC50 ratio): 1.43 fold
[9]
  Kd: 0.29 nM

Reference: patent publication CN113061185A (EXCYTE BEIJING PHARMACEUTICAL TECH DEVELOPMENT CO LTD, dated 2021)
